These results are taken from paper doi:10.1101/2022.11.11.516238.

Data set [1] has as its target T1, NhaR (Vibrio parahaemolyticus) (UniProt Q87S97).
T1 sequence: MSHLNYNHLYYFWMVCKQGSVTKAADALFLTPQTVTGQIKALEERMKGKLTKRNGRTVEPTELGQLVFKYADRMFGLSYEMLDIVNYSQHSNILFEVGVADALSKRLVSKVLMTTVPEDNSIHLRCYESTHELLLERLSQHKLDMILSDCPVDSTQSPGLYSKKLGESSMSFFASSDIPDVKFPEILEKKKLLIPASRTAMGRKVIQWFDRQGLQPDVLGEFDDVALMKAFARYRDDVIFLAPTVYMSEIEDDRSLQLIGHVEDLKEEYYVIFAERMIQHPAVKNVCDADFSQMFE
Kind of data set: EMSA. (A gel shift assay detects complexes by their altered migration in electrophoresis.)

For data set [2], the target named is T2, LeuO (Vibrio parahaemolyticus) (UniProt Q87SS2).
T2 sequence: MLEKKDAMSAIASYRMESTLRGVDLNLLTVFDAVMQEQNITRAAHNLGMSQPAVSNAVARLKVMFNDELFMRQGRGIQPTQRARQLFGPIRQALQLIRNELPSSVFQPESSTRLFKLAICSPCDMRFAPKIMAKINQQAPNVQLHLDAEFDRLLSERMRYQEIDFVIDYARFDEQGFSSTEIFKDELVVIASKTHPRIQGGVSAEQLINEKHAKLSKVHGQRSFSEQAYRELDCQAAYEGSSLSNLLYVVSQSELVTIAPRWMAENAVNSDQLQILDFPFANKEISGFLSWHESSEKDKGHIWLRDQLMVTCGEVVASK
The data set can be described thus: EMSA.

For the sequence “CCAAGGTGCTGATGTGATCATTTTGAAATACATATCCTTTGACGTCTAATTAAATTTCGTATTTATTATGGACATTCTTTACGGTTGAAAATCAAATAATCTGCGTTTTAATCTGGATTAATGTG (double strand) [PectA probe 1A]”, the binding entry in data set [1] and in data set [2] was “binds” each time.
Turning to “CCACGACGACAAAACTAACCTTAAAACGGCATGCGAAAGTGTGCCGTTTTTTTATGTAAAAAACCTTAAGTCCCCTCTTTGAAACCCCACTGCATTCTGACTCAT (double strand) [PectA probe 1C]”, the binding result in data set [1] and in data set [2] was “binds” throughout.
